The values that follow come from patent US20210338158A1, “MEASUREMENT SYSTEM” (WearOptimo Pty Ltd, published 2021).

Series [1] has as its target bovine serum albumin (Bos taurus, UniProt P02769 P02769:25-607). The series can be described thus: AC voltammetry specificity control; 50 ng/mL BSA in PBS gave little change on aptamer-functionalised gold disk electrode. The note with it: label: methylene blue.
The target in series [2] is recombinant troponin I (cardiac troponin I) (UniProt P19429 P19429:2-210). Briefly: AC voltammetry; MB redox current decreases on troponin I exposure; aptamer immobilised on gold microstructures in perfused pig skin (600 ng/mL perfusate) and on gold disk electrode in 150 mM PBS pH 7.4. As to conditions: label: methylene blue.
Chain of recombinant troponin I (cardiac troponin I) (P19429 2-210, one chain of several): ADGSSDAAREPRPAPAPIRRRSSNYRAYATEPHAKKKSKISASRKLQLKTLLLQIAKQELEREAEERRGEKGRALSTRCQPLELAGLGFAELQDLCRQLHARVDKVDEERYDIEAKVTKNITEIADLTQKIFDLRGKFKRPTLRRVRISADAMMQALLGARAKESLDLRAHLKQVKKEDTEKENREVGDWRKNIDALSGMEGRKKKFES

Chain of bovine serum albumin (P02769 25-607, one chain of several): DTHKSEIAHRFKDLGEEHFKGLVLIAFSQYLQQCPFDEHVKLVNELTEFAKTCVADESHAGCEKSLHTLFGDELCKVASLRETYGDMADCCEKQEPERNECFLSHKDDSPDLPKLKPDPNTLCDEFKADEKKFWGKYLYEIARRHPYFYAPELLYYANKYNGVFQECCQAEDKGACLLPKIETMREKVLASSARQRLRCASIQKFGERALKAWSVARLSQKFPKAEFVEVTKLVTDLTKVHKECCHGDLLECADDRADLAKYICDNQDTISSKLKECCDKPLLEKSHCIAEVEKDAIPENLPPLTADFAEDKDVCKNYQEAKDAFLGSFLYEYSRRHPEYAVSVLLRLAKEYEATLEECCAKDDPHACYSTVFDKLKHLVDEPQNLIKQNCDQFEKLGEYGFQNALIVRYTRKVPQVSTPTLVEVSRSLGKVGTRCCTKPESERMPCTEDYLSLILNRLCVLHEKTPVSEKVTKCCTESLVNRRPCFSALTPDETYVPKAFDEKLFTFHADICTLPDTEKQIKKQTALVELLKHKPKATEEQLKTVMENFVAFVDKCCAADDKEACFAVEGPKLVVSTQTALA

B1: troponin I aptamer (thiol/methylene blue) (ssDNA)
DNA: AGTCTCCGCTGTCCTCCCGATGCACTTGACGTATGTCTCACTTTCTTTTCATTGACATGGGATGACGCCGTGACTG
modifications: 5'-SH-(CH2)6, 3'-methylene blue
As for B1, the results for the binding result in series [1] and in series [2] were “no binding” and “binds”, respectively.
